# Source: patent publication US20170333548A1
# What was measured:
# Assay in all cases: cell-based or functional assay
# [1] = target: DV4-EDIII-DV2 chimeric E glycoprotein (DENV4 backbone with DENV2 envelope domain III), on virus particles (Dengue virus 4/2)
# [2] = target: wild-type DENV2 E glycoprotein (Parent_WT_DENV2), on virus particles (Dengue virus 2) (UniProt P07564)
# [3] = target: wild-type DENV4 E glycoprotein (Parent_WT_DENV4), on virus particles (Dengue virus 4) (UniProt P09866)
substance,measurement,setting,value
human monoclonal antibody 2D22,FRNT50 (Vero-81 focus reduction neutralization test),[1],0.01 ng/µL
same,FRNT50 (Vero-81 focus reduction neutralization test),[2],0.1 ng/µL
same,FRNT50 (Vero-81 focus reduction neutralization test),[3],> 5 ng/µL
